Like-named read-outs stand apart in the source and are kept apart here.
Tests used:
Assay in all cases: HiTS-FLIP
6xHis-mOrange-Gcn4p [1] = biological target: T1, 6xHis-mOrange-Gcn4p (Saccharomyces cerevisiae, UniProt P03069 1-281)
6xHis-mOrange-Gcn4p [2] = biological target: T1, 6xHis-mOrange-Gcn4p; remark: listed apart in the source
6xHis-mOrange-Gcn4p [3] = biological target: T1, 6xHis-mOrange-Gcn4p; remark: listed apart in the source
6xHis-mOrange-Gcn4p [4] = biological target: T1, 6xHis-mOrange-Gcn4p; remark: listed apart in the source
6xHis-mOrange-Gcn4p [5] = biological target: T1, 6xHis-mOrange-Gcn4p; remark: listed apart in the source
6xHis-mOrange-Gcn4p [6] = biological target: T1, 6xHis-mOrange-Gcn4p; remark: listed apart in the source

T1 sequence (P03069 whole entry): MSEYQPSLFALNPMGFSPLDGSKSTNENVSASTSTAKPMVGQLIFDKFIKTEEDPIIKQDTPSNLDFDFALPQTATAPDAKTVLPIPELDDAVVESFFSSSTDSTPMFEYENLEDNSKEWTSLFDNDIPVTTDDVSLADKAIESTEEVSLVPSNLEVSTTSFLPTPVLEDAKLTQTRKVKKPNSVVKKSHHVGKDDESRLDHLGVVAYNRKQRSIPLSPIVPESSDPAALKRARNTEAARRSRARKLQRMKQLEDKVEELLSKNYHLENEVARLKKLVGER

B1: 9mer ATGACTCAT (dsDNA)
DNA 1: ATGACTCAT
DNA 2: ATGAGTCAT
binding result (6xHis-mOrange-Gcn4p [1]): binds

B2: 10mer ATGACTCATA (dsDNA)
DNA 1: ATGACTCATA
DNA 2: TATGAGTCAT
binding result (6xHis-mOrange-Gcn4p [2]): binds

B3: 11mer consensus TATGACTCATA (T,A flanks) (dsDNA)
DNA 1: TATGACTCATA
DNA 2: TATGAGTCATA
binding result (6xHis-mOrange-Gcn4p [3]): binds

B4: 10mer TATGACTCAT (dsDNA)
DNA 1: TATGACTCAT
DNA 2: ATGAGTCATA
binding result (6xHis-mOrange-Gcn4p [2]): binds

B5: consensus 7mer TGACTCA (dsDNA)
DNA 1: TGACTCA
DNA 2: TGAGTCA
binding result (6xHis-mOrange-Gcn4p [4]): binds

B6: 11mer flanks C,A (dsDNA)
DNA 1: CATGACTCATA
DNA 2: TATGAGTCATG
binding result (6xHis-mOrange-Gcn4p [5]): binds

B7: adjacent half-sites ATGACGTCAT (dsDNA)
DNA 1: ATGACGTCAT
DNA 2: ATGACGTCAT
binding result (6xHis-mOrange-Gcn4p [6]): binds

B8: 11mer flanks G,A (dsDNA)
DNA 1: GATGACTCATA
DNA 2: TATGAGTCATC
binding result (6xHis-mOrange-Gcn4p [5]): binds

B9: 11mer flanks T,C (dsDNA)
DNA 1: TATGACTCATC
DNA 2: GATGAGTCATA
binding result (6xHis-mOrange-Gcn4p [5]): binds

Source: paper PMC3134637
